What was measured:
human TSLP receptor [1] = target: T1, human TSLP receptor (human, UniProt Q9HC73 23-371); experiment: cell-based or functional assay
T1 sequence (looked up): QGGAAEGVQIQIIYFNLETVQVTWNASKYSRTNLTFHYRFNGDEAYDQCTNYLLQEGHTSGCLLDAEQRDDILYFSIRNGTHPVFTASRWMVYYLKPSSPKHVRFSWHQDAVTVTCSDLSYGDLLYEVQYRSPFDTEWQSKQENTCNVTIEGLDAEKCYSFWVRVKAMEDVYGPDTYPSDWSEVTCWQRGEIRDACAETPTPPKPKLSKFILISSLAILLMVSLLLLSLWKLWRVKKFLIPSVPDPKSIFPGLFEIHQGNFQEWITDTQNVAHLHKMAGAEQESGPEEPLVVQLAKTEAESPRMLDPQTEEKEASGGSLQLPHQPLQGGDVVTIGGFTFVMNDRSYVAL

[2] = target: T2, human TSLP receptor-mouse Fc fusion protein (human (receptor part), mouse (Fc part)); experiment: SPR (Biacore 2000), antibody captured, human TSLP receptor-mouse Fc as analyte; reference TSLPR-012_141
T2 construct: Expressed in FreeStyle 293 cells and purified on Protein G; also called fusion protein of human TSLP receptor and mouse Fc
T2 chain: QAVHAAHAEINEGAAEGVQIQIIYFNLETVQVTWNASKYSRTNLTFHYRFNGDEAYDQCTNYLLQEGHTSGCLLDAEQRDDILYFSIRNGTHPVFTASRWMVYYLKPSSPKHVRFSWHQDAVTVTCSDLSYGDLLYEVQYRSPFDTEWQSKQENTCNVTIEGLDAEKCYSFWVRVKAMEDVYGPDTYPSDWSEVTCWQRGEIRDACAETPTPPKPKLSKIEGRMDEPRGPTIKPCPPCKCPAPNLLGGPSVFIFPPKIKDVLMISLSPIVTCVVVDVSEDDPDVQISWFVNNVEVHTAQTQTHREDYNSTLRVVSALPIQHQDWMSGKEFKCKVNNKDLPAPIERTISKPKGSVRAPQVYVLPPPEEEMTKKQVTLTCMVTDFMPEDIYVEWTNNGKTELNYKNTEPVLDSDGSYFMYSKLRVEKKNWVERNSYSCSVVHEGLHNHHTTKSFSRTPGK
Protocol: (§1) In the SPR analysis, the analysis was performed using Biacore (registered trademark) 2000 (GE Healthcare Japan Corporation). Respective anti-human TSLP receptor antibodies were immobilized on the surface of a sensor chip CM5 using a Human Antibody Capture Kit and an Amine Coupling Kit (GE Healthcare Japan Corporation). The human TSLP receptor-mouse Fc fusion protein obtained in Example 1 was serially diluted with an HBS-EP solution (GE Healthcare Japan Corporation), and 100 μL of the solution was added to the flow path at a flow rate of 50 μL/min. By this measurement system, binding rate constant (ka), dissociation rate constant (kd), and dissociation constant (KD) of the human TSLP receptor-mouse Fc fusion protein and the anti-human TSLP receptor antibody were calculated using data analysis software (BIA Evaluation) (Table 1).

[3] = target: T2, human TSLP receptor-mouse Fc fusion …; experiment: SPR (Biacore 2000), antibody captured on CM5 chip by Human Antibody Capture Kit, human TSLP receptor-mouse Fc as analyte
Protocol: as §1

human TSLP receptor [4] = target: T1, human TSLP receptor; experiment: cell-based or functional assay; remark: listed apart in the source

B1: fully human T7-27 (antibody, human IgG1, kappa, V domains shown)
VH: EVQLLESGGGLVQPGGSLRLSCAASGFTFRSSAMHWVRQAPGKGLKWVSSVSGSGAGTYYADSVKGRFTISRDNPKNTLYLQMNSLRAEDTAVYYCVKEGGSRGFDYWGQGTLVTVSS
VL: DIQMTQSPSSLSASVGDRVTITCRASQDISNYLAWFQQKPGKAPKSLIYTASSLQSGVPSKFSGSGSGTDFTLTISSLQPEDFATYYCQQYNLYPPTFGQGTKVEIKR
modifications: deletion of lysine of the heavy chain C terminal occurred in a large part of the purified antibody
notes: Human IgG1/kappa; Expressed in FreeStyle 293 or CHO-K1SV cells; also called fully human antibody of T7-27
fold inhibition activity against TSLP-induced MDC proteins production compared to TSLPR-012_141 (human TSLP receptor [1]): ~9 fold
fold inhibition activity against human TSLP-induced TARC mRNA expression compared to TSLPR-012_141 (human TSLP receptor [1]): ~12 fold
fold binding activity compared to TSLPR-012_141 [2]: ~3 fold
Kd [3]: 4.1 nM
koff [3]: 0.000125 s⁻¹
IC50 (ng/mL); TSLP-induced MDC proteins production inhibition using human PBMC (5 ng/mL human TSLP mutant-Flag protein) (human TSLP receptor [4]): 0.12 ng/mL

— patent publication US20160208005A1 (Astellas, published 2016)
